Several values for one entry are separate records, joined by “and”; a condition that tells them apart may be missing. Equal entries are not always repeated. Blank lines part the entries; values can stand above or below the molecule they belong to.
Tests used:
[1] = target: recombinant oncofoetal fibronectin FN7B89 (Fn MRGS-7B89-HHHHHH) (human); assay: SPR kinetics, FN7B89 on chip, bivalent fit
[2] = target: polypeptide including human fibronectin domains 7, ED-B, 8, and 9 (human) (UniProt P02751); assay: SPR
Chain of polypeptide including human fibronectin domains 7, ED-B, 8, and 9 (human) (P02751 1173-1538 limits assumed): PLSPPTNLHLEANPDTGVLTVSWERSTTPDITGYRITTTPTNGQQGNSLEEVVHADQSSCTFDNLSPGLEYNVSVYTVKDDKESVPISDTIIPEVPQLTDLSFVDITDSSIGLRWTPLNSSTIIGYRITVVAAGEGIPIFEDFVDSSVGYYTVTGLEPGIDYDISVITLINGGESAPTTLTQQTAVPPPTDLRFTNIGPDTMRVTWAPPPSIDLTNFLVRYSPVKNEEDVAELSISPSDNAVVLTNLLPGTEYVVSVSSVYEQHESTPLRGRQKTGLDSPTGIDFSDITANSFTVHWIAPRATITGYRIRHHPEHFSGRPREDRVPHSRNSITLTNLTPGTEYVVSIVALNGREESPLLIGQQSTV

[3] = target: polypeptide including human fibronectin domains 7, ED-B, 8, and 9 (human) (UniProt P02751); assay: SPR, experiment 2
[4] = target: polypeptide including human fibronectin domains 7, ED-B, 8, and 9 (human) (UniProt P02751); assay: SPR, against huBC1
[5] = target: polypeptide including human fibronectin domains 7, ED-B, 8, and 9 (human) (UniProt P02751); assay: SPR, experiment 1
[6] = target: polypeptide including human fibronectin domains 7, ED-B, 8, and 9 (human) (UniProt P02751); assay: SPR, experiment 2; exp. 2
[7] = target: polypeptide including human fibronectin domains 7, ED-B, 8, and 9 (human) (UniProt P02751); assay: SPR, experiment 1; exp. 1
[8] = target: recombinant oncofoetal fibronectin FN7B89 (Fn MRGS-7B89-HHHHHH) (human); assay: SPR kinetics, against muBC1
[9] = target: T1, polypeptide including human fibronectin domains 7, ED-B, 8, and 9 (human, UniProt P02751 1173-1538, limits assumed); assay: SPR, experiment 1
T1 construct: domain: fibronectin domains 7, ED-B, 8, and 9
T1 sequence (P02751 1173-1538 limits assumed): as above

[10] = target: T1, polypeptide including human fibronectin …; assay: SPR, experiment 1; exp. 1
[11] = target: T1, polypeptide including human fibronectin …; assay: SPR, experiment 2; exp. 2
[12] = target: T1, polypeptide including human fibronectin …; assay: SPR, experiment 2

Kd [1]: 13.9 nM
koff [1]: 0.00109 s⁻¹
kon [1]: 79500 M⁻¹ s⁻¹
Molecule: huBC1-muIL12 (HuBC1-g1-M1-muIL12) (from UniProt P43431 23-215; P43432 23-335)

Kd [2]: 686 nM
koff [3]: 0.0011 s⁻¹
kon [3]: 1650 M⁻¹ s⁻¹
Kd [1]: 377 nM
koff [1]: 0.00065 s⁻¹
kon [1]: 1700 M⁻¹ s⁻¹
Molecule: muBC1 (murine constant regions) (antibody)

Kd [1]: 17.3 nM
koff [1]: 0.00087 s⁻¹
kon [1]: 50900 M⁻¹ s⁻¹
Molecule: huBC1-huIL12 (humanised BC1 antibody-human IL12 fusion protein) (from UniProt P29460 23-328)

koff [3]: 0.0016 s⁻¹
kon [3]: 19000 M⁻¹ s⁻¹
fold tighter binding than the huBC1 antibody alone [4]: > 10 fold and 16 fold
koff [5]: 0.0013 s⁻¹
kon [5]: 17000 M⁻¹ s⁻¹
Kd [6]: 8.3 nM
Kd [7]: 7.6 nM
B1: huBC1-IL12 (BC1-IL12 fusion protein of Example 2) (protein, part only; not given: constant regions and IL-12 subunits, not shown: a dimerising Fc or GST)
heavy, part: EVQLVQSGADVKKPGASVKVSCKASGYTFTNYVMHWVRQAPGQGLEWLGYINPYNDGTQYNERFKGRVTMTGDTSISTAYMELSRLTSDDTAVYYCAREVYGNYIWGNWGQGTLVSVSS
light: EIVLTQSPGTLSLSPGERATLSCSASSSISSNYLHWYQQKPGQAPRLLIYRTSNLASGIPDRFSGSGSGTDFTLTISRLEPEDFAVYYCQQGSSIPFTFGQGTKLEIKRTVAAPSVFIFPPSDEQLKSGTASVVCLLNNFYPREAKVQWKVDNALQSGNSQESVTEQDSKDSTYSLSSTLTLSKADYEKHKVYACEVTHQGLSSPVTKSFNRGEC

fold faster off-rate than muBC1 [8]: 5 fold
fold faster on-rate than muBC1 [8]: 34 fold
koff [9]: 0.0078 s⁻¹
kon [9]: 62000 M⁻¹ s⁻¹
Kd [10]: 125 nM
Kd [11]: 138 nM
Kd [1]: 54 nM
koff [1]: 0.00312 s⁻¹
kon [1]: 57600 M⁻¹ s⁻¹
koff [12]: 0.01 s⁻¹
kon [12]: 73000 M⁻¹ s⁻¹
B2: huBC1 (humanised BC1 antibody, human constant regions) (antibody, V domains shown)
VH: B1 heavy, part
VL: EIVLTQSPGTLSLSPGERATLSCSASSSISSNYLHWYQQKPGQAPRLLIYRTSNLASGIPDRFSGSGSGTDFTLTISRLEPEDFAVYYCQQGSSIPFTFGQGTKLEIK
notes: Only variable domains are tied to the unfused antibody; also called huBC1 antibody; HuBC1 Ab

Source: patent US20070202103A1 (EMD LEXIGEN RESEARCH CENTER, published 2007)
